Assay results from publication PMC11879086, “Identification and characterization of a human MORC2 DNA binding region that is required for gene silencing” (Nucleic Acids Research, 2024).

Legend:
MORC2 1-603 = target: T1, MORC2 1-603 (Homo sapiens, UniProt Q9Y6X9 1-603); experiment: fluorescence anisotropy; apo; FA/EMSA: 50 mM NaCl, 3 mM MgCl2, 20 mM Na-HEPES pH 7.4, 1 mM TCEP, 10% glycerol, 0.025 mM ZnCl2, 50 ug/ml BSA, room temperature; 1 nM nucleic acid (FA) or 20 nM DNA (EMSA); conditions: protein: recombinant; tags: tag removed by TEV; label: 5'-6-FAM; blunt
T1 sequence: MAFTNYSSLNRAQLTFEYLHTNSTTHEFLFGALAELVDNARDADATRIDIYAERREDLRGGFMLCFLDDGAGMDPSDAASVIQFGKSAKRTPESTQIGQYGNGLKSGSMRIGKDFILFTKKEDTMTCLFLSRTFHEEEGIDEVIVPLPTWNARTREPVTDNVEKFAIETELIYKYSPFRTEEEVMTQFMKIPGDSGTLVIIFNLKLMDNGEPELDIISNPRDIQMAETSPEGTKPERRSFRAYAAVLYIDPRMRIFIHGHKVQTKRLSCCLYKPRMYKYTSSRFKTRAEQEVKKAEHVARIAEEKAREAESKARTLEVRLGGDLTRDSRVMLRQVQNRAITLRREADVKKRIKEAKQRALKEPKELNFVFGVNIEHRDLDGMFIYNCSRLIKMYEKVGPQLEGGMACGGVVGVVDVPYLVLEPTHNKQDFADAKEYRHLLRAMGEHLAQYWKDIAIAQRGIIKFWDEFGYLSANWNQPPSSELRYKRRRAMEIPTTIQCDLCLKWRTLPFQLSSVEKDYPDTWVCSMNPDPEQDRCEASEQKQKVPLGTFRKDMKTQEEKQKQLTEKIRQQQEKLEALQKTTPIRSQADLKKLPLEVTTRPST

MORC2 alanine mutant = target: T2, MORC2 alanine mutant (Homo sapiens, UniProt Q9Y6X9 1-1032, K704A;R707A;K713A;K716A;K721A;K722A;R754A;R755A;K756A;R758A;K760A;R761A); experiment: as above; conditions: protein: recombinant; tags: tag removed by TEV; chain copies: 2; label: 5'-6-FAM; blunt
T2 sequence: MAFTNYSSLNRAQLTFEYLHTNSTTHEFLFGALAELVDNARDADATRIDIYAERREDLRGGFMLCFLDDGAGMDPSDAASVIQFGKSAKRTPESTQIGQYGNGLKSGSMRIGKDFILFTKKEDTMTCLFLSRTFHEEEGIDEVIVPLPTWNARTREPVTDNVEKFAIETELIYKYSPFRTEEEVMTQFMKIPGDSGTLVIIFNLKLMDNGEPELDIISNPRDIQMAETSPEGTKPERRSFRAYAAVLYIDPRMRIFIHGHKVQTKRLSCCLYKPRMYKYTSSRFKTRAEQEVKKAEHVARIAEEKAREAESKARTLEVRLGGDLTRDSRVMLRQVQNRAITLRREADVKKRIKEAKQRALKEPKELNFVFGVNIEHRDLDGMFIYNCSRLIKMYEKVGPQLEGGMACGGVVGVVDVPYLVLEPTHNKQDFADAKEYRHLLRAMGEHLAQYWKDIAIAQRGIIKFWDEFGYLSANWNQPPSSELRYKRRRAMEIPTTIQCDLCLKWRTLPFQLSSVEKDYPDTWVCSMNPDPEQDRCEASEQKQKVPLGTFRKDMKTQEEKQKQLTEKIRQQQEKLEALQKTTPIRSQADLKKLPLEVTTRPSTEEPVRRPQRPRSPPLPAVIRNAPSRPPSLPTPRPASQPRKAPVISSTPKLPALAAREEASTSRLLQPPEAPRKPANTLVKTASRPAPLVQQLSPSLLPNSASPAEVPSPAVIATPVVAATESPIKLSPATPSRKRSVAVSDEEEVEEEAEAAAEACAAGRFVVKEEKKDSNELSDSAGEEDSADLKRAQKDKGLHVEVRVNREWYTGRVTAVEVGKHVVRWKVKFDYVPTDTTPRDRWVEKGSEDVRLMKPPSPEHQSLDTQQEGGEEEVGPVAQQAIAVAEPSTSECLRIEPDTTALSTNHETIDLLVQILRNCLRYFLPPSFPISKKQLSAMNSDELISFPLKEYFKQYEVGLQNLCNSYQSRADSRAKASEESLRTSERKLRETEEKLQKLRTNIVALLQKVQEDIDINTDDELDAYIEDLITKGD

B1: Random 35mer dsDNA (dsDNA)
DNA 1: ATAGGGTCCATCAGAATTCGGATGAACTCGGTGTG
DNA 2: CACACCGAGTTCATCCGAATTCTGATGGACCCTAT
MORC2 1-603
  Kd: 446 ± 119 nM
MORC2 alanine mutant
  Kd: 350 ± 60 nM
